Measured values as given in patent publication US9625458.
Residue numbers refer to the chain shown, from its start. Names and notes keep the numbering of the source.

B1: dipeptide BP R141C-Acrylodan conjugate (receptor, E. coli, not shown: small tags and cut ends)
chain: MKTLVYCSEGSPEGFNPQLFTSGTTYDASSVPLYNRLVEFKIGTTEVIPGLAEKWEVSEDGKTYTFHLRKGVKWHDNKEFKPTRELNADDVVFSFDRQKNAQNPYHKVSGGSYEYFEGMGLPELISEVKKVDDNTVQFVLTCPEAPFLADLAMDFASILSKEYADAMMKAGTPEKLDLNPIGTGPFQLQQYQKDSRIRYKAFDGYWGTKPQIDTLVFSITPDASVRYAKLQKNECQVMPYPNPADIARMKQDKSINLMEMPGLNVGYLSYNVQKKPLDDVKVRQALTYAVNKDAIIKAVYQGAGVSAKNLIPPTMWGYNDDVQDYTYDPEKAKALLKEAGLEKGFSIDLWAMPVQRPYNPNARRMAEMIQADWAKVGVQAKIVTYEWGEYLKRAKDGEHQTVMMGWTGDNGDPDNFFATLFSCAASEQGSNYSKWCYKPFEDLIQPARATDDHNKRVELYKQAQVVMHDQAPALIIAHSTVFEPVRKEVKGYVVDPLGKHHFENVSIE
modifications: acrylodan fluorophore conjugated to the thiol of Cys 141
B2: dipeptide BP K394C-JPW4042 conjugate (receptor, E. coli, not shown: small tags and cut ends)
chain: B1 chain with C142R, K395C
modifications: JPW4042 fluorophore conjugated to the thiol of Cys 394
B3: dipeptide BP T44C-Fluorescein conjugate (receptor, E. coli, not shown: small tags and cut ends)
chain: B1 chain with T45C, C142R
modifications: fluorescein (5-iodoacetamidofluorescein) conjugated to the thiol of Cys 44
B4: dipeptide BP S111C-Fluorescein conjugate (receptor, E. coli, not shown: small tags and cut ends)
chain: B1 chain with S112C, C142R
modifications: fluorescein (5-iodoacetamidofluorescein) conjugated to the thiol of Cys 111
B5: dipeptide BP K394C-JPW4039 conjugate (receptor, E. coli, not shown: small tags and cut ends)
chain: B1 chain with C142R, K395C
modifications: JPW4039 fluorophore conjugated to the thiol of Cys 394
B6: dipeptide BP W315C-Acrylodan conjugate (receptor, E. coli, not shown: small tags and cut ends)
chain: B1 chain with C142R, W316C
modifications: acrylodan fluorophore conjugated to the thiol of Cys 315
B7: dipeptide BP W315C-JPW4045 conjugate (receptor, E. coli, not shown: small tags and cut ends)
chain: B1 chain with C142R, W316C
modifications: JPW4045 fluorophore conjugated to the thiol of Cys 315
B8: dipeptide BP S111C-JPW4039 conjugate (receptor, E. coli, not shown: small tags and cut ends)
chain: B1 chain with S112C, C142R
modifications: JPW4039 fluorophore conjugated to the thiol of Cys 111
B9: dipeptide BP K394C-Fluorescein conjugate (receptor, E. coli, not shown: small tags and cut ends)
chain: B1 chain with C142R, K395C
modifications: fluorescein (5-iodoacetamidofluorescein) conjugated to the thiol of Cys 394
B10: dipeptide BP S111C-Acrylodan conjugate (receptor, E. coli, not shown: small tags and cut ends)
chain: B1 chain with S112C, C142R
modifications: acrylodan fluorophore conjugated to the thiol of Cys 111
B11: dipeptide BP D450C-Acrylodan conjugate (receptor, E. coli, not shown: small tags and cut ends)
chain: B1 chain with C142R, D451C
modifications: acrylodan fluorophore conjugated to the thiol of Cys 450
B12: dipeptide BP D450C-JPW4045 conjugate (receptor, E. coli, not shown: small tags and cut ends)
chain: B1 chain with C142R, D451C
modifications: JPW4045 fluorophore conjugated to the thiol of Cys 450
B13: dipeptide BP K394C-Acrylodan conjugate (receptor, E. coli, not shown: small tags and cut ends)
chain: B1 chain with C142R, K395C
modifications: acrylodan fluorophore conjugated to the thiol of Cys 394
B14: dipeptide BP T44C-NBD conjugate (receptor, E. coli, not shown: small tags and cut ends)
chain: B1 chain with T45C, C142R
modifications: NBD fluorophore conjugated to the thiol of Cys 44
B15: dipeptide BP W315C-NBD conjugate (receptor, E. coli, not shown: small tags and cut ends)
chain: B1 chain with C142R, W316C
modifications: NBD fluorophore conjugated to the thiol of Cys 315
B16: dipeptide BP D450C-JPW4042 conjugate (receptor, E. coli, not shown: small tags and cut ends)
chain: B1 chain with C142R, D451C
modifications: JPW4042 fluorophore conjugated to the thiol of Cys 450
B17: dipeptide BP D450C-JPW4039 conjugate (receptor, E. coli, not shown: small tags and cut ends)
chain: B1 chain with C142R, D451C
modifications: JPW4039 fluorophore conjugated to the thiol of Cys 450
B18: dipeptide BP W315C-JPW4039 conjugate (receptor, E. coli, not shown: small tags and cut ends)
chain: B1 chain with C142R, W316C
modifications: JPW4039 fluorophore conjugated to the thiol of Cys 315
B19: dipeptide BP S111C-JPW4042 conjugate (receptor, E. coli, not shown: small tags and cut ends)
chain: B1 chain with S112C, C142R
modifications: JPW4042 fluorophore conjugated to the thiol of Cys 111
B20: dipeptide BP K394C-NBD conjugate (receptor, E. coli, not shown: small tags and cut ends)
chain: B1 chain with C142R, K395C
modifications: NBD fluorophore conjugated to the thiol of Cys 394
B21: dipeptide BP R141C-Fluorescein conjugate (receptor, E. coli, not shown: small tags and cut ends)
chain: B1 chain
modifications: fluorescein (5-iodoacetamidofluorescein) conjugated to the thiol of Cys 141
B22: dipeptide BP T44C conjugated to NBD (receptor, E. coli, not shown: small tags and cut ends)
chain: B1 chain with T45C, C142R
modifications: NBD (N,N'-dimethyl-N-(iodoacetyl)-N'-(7-nitrobenz-2-oxa-1,3-diazol-4-yl)ethylenediamide) conjugated to the thiol of Cys 44
B23: dipeptide BP K394C conjugated to fluorescein (receptor, E. coli, not shown: small tags and cut ends)
chain: B1 chain with C142R, K395C
modifications: fluorescein (5-iodoacetamidofluorescein) conjugated to the thiol of Cys 394
B24: dipeptide BP K394C mutant conjugated to NBD (protein, Escherichia coli, not shown: small tags and cut ends)
chain: B1 chain with C142R, K395C
modifications: NBD fluorophore (N,N'-dimethyl-N-(iodoacetyl)-N'-(7-nitrobenz-2-oxa-1,3-diazol-4-yl)ethylenediamide) conjugated to the thiol of Cys 394

These binders were tested against Gly-Leu dipeptide (assay: fluorimetric titration of the fluorophore conjugate with ligand, fit to binding isotherm).

Kd [nM]	Binder
2300	B1
78000	B2
640	B3
2600	B4
30000	B5
130	B6
3200	B7
34000	B8
93000	B9
4800	B10
11000	B11
2000	B12
23000	B13
6	B14
60	B15
1500	B16
910	B17
1000	B18
15800	B19
12	B20
38000	B21

These binders were tested against Gly-Leu dipeptide (assay: fluorimetric titration of the fluorophore conjugate with ligand; low end of the range over 21 conjugates).

Kd [nM]	Binder
6	B22

What follows are binders tested against Gly-Leu dipeptide (assay: fluorimetric titration of the fluorophore conjugate with ligand; high end of the range over 21 conjugates).

Kd [nM]	Binder
93000	B23

What follows are binders tested against Gly-Leu dipeptide (assay: fluorimetric titration of the fluorophore conjugate with ligand, fit to a binding isotherm).

Kd [nM]	Binder
6	B24
